{
  "source": "paper PMC9245612",
  "about": "(Proceedings of the National Academy of Sciences of the …, 2022)",
  "proteins": {"B1": {"name": "human NADK2 mature protein (amino acids 47 to 442) (enzyme, UniProt Q4G0N4 47-442, looked up)", "chain": "LGQGQPRELAGCGSRADGGFRPSRVVVVAKTTRYEFEQQRYRYAELSEEDLKQLLALKGSSYSGLLERHHIHTKNVEHIIDSLRNEGIEVRLVKRREYDEETVRWADAVIAAGGDGTMLLAASKVLDRLKPVIGVNTDPERSEGHLCLPVRYTHSFPEALQKFYRGEFRWLWRQRIRLYLEGTGINPVPVDLHEQQLSLNQHNRALNIERAHDERSEASGPQLLPVRALNEVFIGESLSSRASYYEISVDDGPWEKQKSSGLNLCTGTGSKAWSFNINRVATQAVEDVLNIAKRQGNLSLPLNRELVEKVTNEYNESLLYSPEEPKILFSIREPIANRVFSSSRQRCFSSKVCVRSRCWDACMVVDGGTSFEFNDGAIASMMINKEDELRTVLLEQ"}, "B2": {"name": "human cytosolic NADK, full-length (enzyme, UniProt O95544 1-446, looked up)", "chain": "MEMEQEKMTMNKELSPDAAAYCCSACHGDETWSYNHPIRGRAKSRSLSASPALGSTKEFRRTRSLHGPCPVTTFGPKACVLQNPQTIMHIQDPASQRLTWNKSPKSVLVIKKMRDASLLQPFKELCTHLMEENMIVYVEKKVLEDPAIASDESFGAVKKKFCTFREDYDDISNQIDFIICLGGDGTLLYASSLFQGSVPPVMAFHLGSLGFLTPFSFENFQSQVTQVIEGNAAVVLRSRLKVRVVKELRGKKTAVHNGLGENGSQAAGLDMDVGKQAMQYQVLNEVVIDRGPSSYLSNVDVYLDGHLITTVQGDGVIVSTPTGSTAYAAAAGASMIHPNVPAIMITPICPHSLSFRPIVVPAGVELKIMLSPEARNTAWVSFDGRKRQEIRHGDSISITTSCYPLPSICVRDPVSDWFESLAQCLHWNVRKKQAHFEEEEEEEEEG"}},
  "key": {"purified protein": {"substrate": "Nc1ncnc2c1ncn2[C@@H]1O[C@H](COP(=O)(O)OP(=O)(O)OP(=O)(O)O)[C@@H](O)[C@H]1O", "test": "purified protein", "conditions": "co-substrate NAD+, 37 °C"}, "SEC": {"biological_target": "the molecule itself", "test": "SEC"}},
  "data": [
    {"protein": "B1", "values": [
      {"measurement": "Km", "setting": "purified protein", "value": 2200, "unit": "µM"},
      {"measurement": "stoichiometry N", "setting": "SEC", "value": 2}
    ]},
    {"protein": "B2", "values": [
      {"measurement": "stoichiometry N", "setting": "SEC", "value": 4}
    ]}
  ]
}
